Laboratory results taken from patent CN117357474A (JIANGSU QUANXIN BIOMEDICAL CO LTD, dated 2024).

T1: human IL-36R on cells (HT29 reporter cells, HT29, A431, human PBMC) (human, UniProt Q9HB29 20-575)
T1 sequence (looked up): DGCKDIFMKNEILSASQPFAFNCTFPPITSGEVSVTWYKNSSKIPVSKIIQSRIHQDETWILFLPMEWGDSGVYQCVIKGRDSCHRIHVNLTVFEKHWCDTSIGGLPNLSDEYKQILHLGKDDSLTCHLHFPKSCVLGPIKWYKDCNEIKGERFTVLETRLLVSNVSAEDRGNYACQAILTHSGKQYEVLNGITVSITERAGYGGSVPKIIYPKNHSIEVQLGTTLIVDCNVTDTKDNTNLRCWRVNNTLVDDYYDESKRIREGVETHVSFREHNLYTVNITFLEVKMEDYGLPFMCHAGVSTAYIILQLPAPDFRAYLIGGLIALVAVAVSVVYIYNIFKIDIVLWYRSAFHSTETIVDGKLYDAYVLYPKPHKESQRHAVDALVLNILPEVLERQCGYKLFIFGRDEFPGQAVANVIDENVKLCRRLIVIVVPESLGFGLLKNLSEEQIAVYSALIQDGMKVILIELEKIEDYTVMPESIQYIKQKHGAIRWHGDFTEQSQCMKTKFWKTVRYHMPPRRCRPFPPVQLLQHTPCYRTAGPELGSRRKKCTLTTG

T2: 人白介素-36受体 (human IL-36R), soluble antigen in the Biacore assay (human)
T2 chain: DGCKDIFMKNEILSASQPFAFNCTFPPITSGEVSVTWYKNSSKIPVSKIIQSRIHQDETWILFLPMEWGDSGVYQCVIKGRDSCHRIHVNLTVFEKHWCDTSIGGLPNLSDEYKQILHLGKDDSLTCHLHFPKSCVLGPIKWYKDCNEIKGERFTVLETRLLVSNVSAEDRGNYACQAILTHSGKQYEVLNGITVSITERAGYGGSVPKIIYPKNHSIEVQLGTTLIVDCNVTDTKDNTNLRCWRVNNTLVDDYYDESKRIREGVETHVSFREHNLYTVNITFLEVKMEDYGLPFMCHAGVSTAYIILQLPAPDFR


How the values were obtained:
[1] = target: T1, human IL-36R on cells (HT29 reporter …); assay: cell-based or functional assay
[2] = target: T2, 人白介素-36受体 (human IL-36R), soluble …; assay: SPR, Biacore T200, antibody captured on Protein A chip, antigen in flow, 25°C, 1:1 model, mean of three runs

Binder	抑制人IL-36(α、β、γ)诱导A431细胞释放CXCL-1的IC50 [1]	抑制人IL-36(α、β、γ)诱导A431细胞释放IL-8的IC50 [1]	抑制人IL-36(α、β、γ)诱导HT29细胞释放CXCL-1的IC50 [1]	抑制人IL-36(α、β、γ)诱导HT29细胞释放IL-8的IC50 [1]	抑制人IL-36(α、β、γ)诱导的HT29报告基因细胞STAT3磷酸化活性的IC50 [1]	抑制人IL-36β诱导的人PBMC细胞释放IL-8活性的IC50 [1]	Kd [2]	koff [2]	kon [2]	抑制人IL-36(α、β、γ)诱导的HT29报告基因细胞STAT3磷酸化的IC50 [1]	抑制人IL-36β诱导的人PBMC释放IL-8活性的IC50 [1]
QX009N(HZD25-54) (antibody, V domains shown) VH: EVQLVESGGGLVQPGGSLRLSCAASGIDLSNYAMGWVRQAPGKGLEWVGYISGGGSAYYASWAKGRFTISRDNSKNTLYLQMNSLRAEDTAVYYCARWAIKSYFFGMDLWGQGTLVTVSS VL: DIQMTQSPSSVSASVGDRVTITCQASEYISSYLAWYQQKPGKAPKLLIYQASTLASGVPSRFSGSGSGTDFTLTISSLQPEDFATYYCQTNNAIHTYGGAFGGGTKVEIK	4.12 ng/mL	2.89 ng/mL	2.21 ng/mL	1.53 ng/mL	2.16 ng/mL	4.69 ng/mL	0.313 nM	3.58e-05 s⁻¹	114000 M⁻¹ s⁻¹		
Spesolimab (self-made from the B6 sequence of US9023995B2) (antibody, V domains shown) VH: QVQLVQSGAEVKKPGASVKVSCKASGYSFTSSWIHWVKQAPGQGLEWMGEINPGNVRTNYNENFRNKVTMTVDTSISTAYMELSRLRSDDTAVYYCTVVFYGEPYFPYWGQGTLVTVSS VL: QIVLTQSPGTLSLSPGERATMTCTASSSVSSSYFHWYQQKPGQAPRLWIYRTSRLASGVPDRFSGSGSGTDFTLTISRLEPEDAATYYCHQFHRSPLTFGAGTKLEIK	22.5 ng/mL	16 ng/mL	12.3 ng/mL	11.5 ng/mL			0.862 nM	3.11e-05 s⁻¹	36000 M⁻¹ s⁻¹	15.7 ng/mL	26.6 ng/mL
